A short description of series [1]: Thioflavin T fluorescence. The format is physicochemical.
The next series deals with T1, tPA (Homo sapiens, UniProt P00750).
T1 construct: purchased Boehringer-Ingelheim (Actilyse, Alteplase)
Description: Plasminogen-activation assay (tPA-mediated Plg to Pls, S-2251). The class given is biochemical.

The target in series [2] is T2, human fibronectin finger 4,5 (Fn F4,5) fragment (Homo sapiens, UniProt P02751).
T2 construct: human fibronectin finger 4,5 (Fn F4,5) fragment; made in house; host or cells: HEK293E cells, transient transfection, protein purified from the medium
Briefly: ELISA, binding of fibronectin F4,5 to coated (mis)folded proteins. Particulars: coated protein; for affinity of fibronectin F4,5 (detection anti-FLAG HRP): FIG. 7D-H. On the procedure: The plates were blocked using Blocking reagent (Roche 1112589). A dilution series of the protein of interest was applied to the coated proteins and wells were subsequently washed using TBS-T (50 mM Tris pH 7.3, 150 mM NaCl and 0.1% Tween20). Bound protein is detected by the FLAG-tag using 1:3000 anti-FLAG-HRP (Sigma A-8592) in PBS-T, or by 1:1000 Ni-NTA-HRP (Qiagen 34530) in PBS-T. The HRP reaction Is performed using the TMB substrate (Biosource 4501103 or Tebu Bio 101TMB100-500), stopped using 10% H2SO4 and absorbance was measured at 450 nm.
For orientation: An ELISA detects its analyte on a solid surface through an enzyme-linked reagent.

T2 sequence (P02751 182-276 limits assumed): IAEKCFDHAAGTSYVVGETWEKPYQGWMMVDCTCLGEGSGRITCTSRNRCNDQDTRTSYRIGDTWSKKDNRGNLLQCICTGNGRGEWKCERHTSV
T1 sequence (P00750 36-562): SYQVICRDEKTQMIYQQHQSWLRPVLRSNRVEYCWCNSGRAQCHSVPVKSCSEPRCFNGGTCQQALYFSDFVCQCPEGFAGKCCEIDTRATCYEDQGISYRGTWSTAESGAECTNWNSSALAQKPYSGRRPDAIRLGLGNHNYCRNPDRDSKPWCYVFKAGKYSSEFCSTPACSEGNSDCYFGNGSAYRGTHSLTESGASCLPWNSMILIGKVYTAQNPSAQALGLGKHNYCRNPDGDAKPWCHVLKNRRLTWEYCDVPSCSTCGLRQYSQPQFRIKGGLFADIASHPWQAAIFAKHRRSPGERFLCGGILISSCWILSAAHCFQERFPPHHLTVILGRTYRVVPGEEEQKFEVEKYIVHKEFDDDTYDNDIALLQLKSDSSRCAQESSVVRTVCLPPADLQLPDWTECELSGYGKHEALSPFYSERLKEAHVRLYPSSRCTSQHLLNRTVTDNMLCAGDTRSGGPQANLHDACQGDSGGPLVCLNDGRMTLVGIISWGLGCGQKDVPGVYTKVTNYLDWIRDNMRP

“Abciximab: abciximab, an inhibitor of blood platelet aggregation (ReoPro, Centocor)”: in series [1] (after storage at 65° C.), the ThT fluorescence enhancement result is reported as “enhanced ThT fluorescence”. The “Fluorescence (a.u. +/− SD) ThT” value in series [1] (marketed biopharmaceutical within expiry limits, five μL tested) is reported as 8 +/− 8 a.u. Besides, the “enhancement of ThT fluorescence” value in series [1] (therapeutics stored at 4° C.) was “do not have ThT fluorescence enhancing or tPA activating properties”. Besides, in the series with tPA (after storage at 65° C.), the “Pls activity (tPA activation)” value was “induced Pls activity”. For the same substance, in the series with tPA (stored at 4° C., GH 500 μg ml^−1, zinc-insulin diluted tenfold), the “tPA activation by protein therapeutics” value was “do not have ThT fluorescence enhancing or tPA activating properties”.
In the case of “albumin-AGE: advanced glycation end-product modified bovine serum albumin”, the “binding of fibronectin F4-5 (detection Ni-NTA-HRP)” value in series [2] (FIG. 7A) is on record as “high affinity binding”. Also, in series [2], the “affinity of fibronectin F4,5 (detection anti-FLAG HRP)” value is “High affinities”.
For lysozyme: chicken egg-white lysozyme, the “ThT fluorescence after incubation with kaolin” value in series [1] (compared to buffer) is on record as “only in a small increase in ThT fluorescence”. The “activation of tPA and Plg by component alone” value with tPA (FIG. 2G, without contacting) is “do not activate tPA and Plg”. Moreover, the “affinity of fibronectin F4,5 (detection anti-FLAG HRP)” value in series [2] is “high affinity”.

For the origin of these results see patent publication US20080207488A1, “Method for Detecting Peptides Comprising a Cross-B Structure” (priority 2005, published 2008).
